Measured values as given in patent US20140087995A1 (published 2014).
Numbered stars: 1 amine (or outer) side, 2 acyl side, 3 side chain; on linkers, the order of the positions; unused ones are H or OH. Bridge positions count the residues as written; N and C are the ends. Side chains are listed from the residue outwards. Ends that are not written are not given here. * marks the point of attachment. C20 diacid = O=C(O)CCCCCCCCCCCCCCCCCCC(=O)*; γGlu = O=C(O)[C@H](CCC(=O)[*:2])N[*:1]; AEEA = NCCOCCOCC(=O)O

T1: human calcitonin receptor (human, UniProt P30988 25-474)
T1 construct: whole, on cells; Used as cell membranes prepared from the transfected BHK cells (Assay VII), not as intact cells; also called hCTR; hCT
T1 sequence (looked up): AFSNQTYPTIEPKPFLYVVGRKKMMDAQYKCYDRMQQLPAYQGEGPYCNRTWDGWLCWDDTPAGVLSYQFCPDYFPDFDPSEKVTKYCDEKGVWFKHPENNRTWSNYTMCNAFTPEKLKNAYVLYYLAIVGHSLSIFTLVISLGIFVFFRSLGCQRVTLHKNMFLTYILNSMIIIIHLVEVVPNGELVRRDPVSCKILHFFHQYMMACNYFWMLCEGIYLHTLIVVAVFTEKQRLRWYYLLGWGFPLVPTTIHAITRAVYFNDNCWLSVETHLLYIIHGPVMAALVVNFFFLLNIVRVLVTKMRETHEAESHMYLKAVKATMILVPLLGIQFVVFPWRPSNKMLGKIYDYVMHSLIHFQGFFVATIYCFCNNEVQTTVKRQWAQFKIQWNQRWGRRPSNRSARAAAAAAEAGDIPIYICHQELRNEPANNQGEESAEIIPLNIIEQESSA

T2: human amylin receptor (human calcitonin receptor co-expressed with RAMP-3; amylin 3(a) receptor) (human, UniProt P30988 25-474; O60896 24-148, limits assumed)
T2 construct: whole, on cells; Used as cell membranes prepared from Amylin 3(a)/CRE-luc BHK cells (Assay V), not as intact cells; also called hAmylin-R; hAmylinR
T2 sequence (looked up) 1: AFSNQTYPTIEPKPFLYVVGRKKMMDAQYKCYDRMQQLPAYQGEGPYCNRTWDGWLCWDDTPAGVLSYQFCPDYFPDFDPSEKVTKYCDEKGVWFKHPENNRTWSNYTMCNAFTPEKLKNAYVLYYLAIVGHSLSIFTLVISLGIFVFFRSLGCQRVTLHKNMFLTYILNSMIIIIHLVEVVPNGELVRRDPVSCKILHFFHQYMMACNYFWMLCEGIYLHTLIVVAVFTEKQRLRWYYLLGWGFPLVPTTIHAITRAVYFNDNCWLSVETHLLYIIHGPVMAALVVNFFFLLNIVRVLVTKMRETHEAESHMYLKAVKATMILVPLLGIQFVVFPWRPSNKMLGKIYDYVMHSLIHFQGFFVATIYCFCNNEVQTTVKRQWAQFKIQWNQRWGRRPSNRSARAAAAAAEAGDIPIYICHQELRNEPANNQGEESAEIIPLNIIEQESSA
T2 sequence (looked up) 2: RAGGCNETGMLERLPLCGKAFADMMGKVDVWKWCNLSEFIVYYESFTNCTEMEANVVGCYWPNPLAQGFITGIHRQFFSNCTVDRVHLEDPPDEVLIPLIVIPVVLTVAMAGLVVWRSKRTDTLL


Assays:
[1] = biological target: T1, human calcitonin receptor; assay: SPA competition against 125I-calcitonin, membranes with human calcitonin receptor (Assay VII)
Outline: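 BHK hCTR membranes 35 ng/μL + SPA beads 0.05 mg/well; buffer 50 mM Hepes pH 7.4, 1 mM CaCl2, 5 mM MgCl₂, 0.1% OA, 0.02% Tween20. 120 min, 25° C., shaking. Scintillation count; IC50 by one-site binding competition.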

[2] = biological target: T2, human amylin receptor (human calcitonin …); assay: ratio of hCTR binding IC50 to hAmylin-R binding IC50 (reference: human calcitonin receptor)
Description: The resulting pellet was resuspended, homogenized and centrifuged (20.000 rpm, 15 min) in a buffer containing 20 mM Na-HEPES and 0.1 mM EDTA (pH 7.4, buffer 2). The resulting pellet was resuspended in buffer 2 and protein concentration was measured (BCA protein Assay, Pierce). The homogenate was kept cold during the whole procedure. The membranes were kept at −80° C. until use. The assay was performed in a 384 well Optiplate (PerkinElmer) in a total volume of 40 ul. Membranes were mixed with SPA beads. Final concentration of membranes 35 ng/μL final and SPA beads was 0.05 mg/well. Test-compounds were dissolved in DMSO and further diluted in assay buffer (50 mM Hepes, pH 7.4, 1 mM CaCl2, 5 mM MgCl₂, 0.1% OA and 0.02% Tween20). […] The final mixture was incubated with shaking at 400 rpm for 120 min at 25° C. prior to centrifugation (1500 rpm, 10 min). Samples were analyzed on TopCounter™ (Packard). The IC₅₀ was calculated using (one site binding competition analysis) GraphPad Prism5 as a measure of receptor affinity.
Membranes were prepared in the following way; the cells were rinsed with PBS and incubated with Versene for approximately 5 min before harvesting. The cells were flushed with PBS and the cell-suspension was centrifuged for 5 min at 1000 rpm. Cells were homogenized (Ultrathurrax) in a buffer containing 20 mM Na-HEPES and 10 mM EDTA (pH 7.4) and centrifuged at 20.000 rpm for 15 min. The resulting pellet was resuspended, homogenized and centrifuged (20.000 rpm, 15 min) in a buffer containing 20 mM Na-HEPES and 0.1 mM EDTA (pH 7.4, buffer 2). The resulting pellet was resuspended in buffer 2 and protein concentration was measured (BCA protein Assay, Pierce). The homogenate was kept cold during the whole procedure. The membranes were kept at −80° C. until use. Assay was performed in a 384 well Optiplate (PerkinElmer) in a total volume of 40 ul. Membranes were mixed with SPA beads.

Binder | IC50 [1] [nM] | Ratio hCT/hAmylin binding [2]
K([AEEA-γGlu-C20 diacid])CNTATCATQRLANFLRHSSPNFGAIPSSTPVGSHTY-NH2 (disulfide 2-7; N-terminus assumed; SMILES CC[C@H](C)[C@H](NC(=O)[C@H](C)NC(=O)CNC(=O)[C@H](Cc1ccccc1)NC(=O)[C@H](CC(N)=O)NC(=O)[C@@H]1CCCN1C(=O)[C@H](CO)NC(=O)[C@H](CO)NC(=O)[C@H](Cc1c[nH]cn1)NC(=O)[C@H](CCCNC(=N)N)NC(=O)[C@H](CC(C)C)NC(=O)[C@H](Cc1ccccc1)NC(=O)[C@H](CC(N)=O)NC(=O)[C@H](C)NC(=O)[C@H](CC(C)C)NC(=O)[C@H](CCCNC(=N)N)NC(=O)[C@H](CCC(N)=O)NC(=O)[C@@H](NC(=O)[C@H](C)NC(=O)[C@@H]1CSSC[C@H](NC(=O)[C@@H](N)CCCCNC(=O)COCCOCCNC(=O)CC[C@H](NC(=O)CCCCCCCCCCCCCCCCCCC(=O)O)C(=O)O)C(=O)N[C@@H](CC(N)=O)C(=O)N[C@@H]([C@@H](C)O)C(=O)N[C@@H](C)C(=O)N[C@@H]([C@@H](C)O)C(=O)N1)[C@@H](C)O)C(=O)N1CCC[C@H]1C(=O)N[C@@H](CO)C(=O)N[C@@H](CO)C(=O)N[C@H](C(=O)N1CCC[C@H]1C(=O)N[C@H](C(=O)NCC(=O)N[C@@H](CO)C(=O)N[C@@H](Cc1c[nH]cn1)C(=O)N[C@H](C(=O)N[C@@H](Cc1ccc(O)cc1)C(N)=O)[C@@H](C)O)C(C)C)[C@@H](C)O, also called compound 57) | 15.3 | 133
K([AEEA-γGlu-C20 diacid])CNTATCATQRLANFLRHSSPNFGAIPSSTNVGPNTY-NH2 (disulfide 2-7; N-terminus assumed; SMILES CC[C@H](C)[C@H](NC(=O)[C@H](C)NC(=O)CNC(=O)[C@H](Cc1ccccc1)NC(=O)[C@H](CC(N)=O)NC(=O)[C@@H]1CCCN1C(=O)[C@H](CO)NC(=O)[C@H](CO)NC(=O)[C@H](Cc1c[nH]cn1)NC(=O)[C@H](CCCNC(=N)N)NC(=O)[C@H](CC(C)C)NC(=O)[C@H](Cc1ccccc1)NC(=O)[C@H](CC(N)=O)NC(=O)[C@H](C)NC(=O)[C@H](CC(C)C)NC(=O)[C@H](CCCNC(=N)N)NC(=O)[C@H](CCC(N)=O)NC(=O)[C@@H](NC(=O)[C@H](C)NC(=O)[C@@H]1CSSC[C@H](NC(=O)[C@@H](N)CCCCNC(=O)COCCOCCNC(=O)CC[C@H](NC(=O)CCCCCCCCCCCCCCCCCCC(=O)O)C(=O)O)C(=O)N[C@@H](CC(N)=O)C(=O)N[C@@H]([C@@H](C)O)C(=O)N[C@@H](C)C(=O)N[C@@H]([C@@H](C)O)C(=O)N1)[C@@H](C)O)C(=O)N1CCC[C@H]1C(=O)N[C@@H](CO)C(=O)N[C@@H](CO)C(=O)N[C@H](C(=O)N[C@@H](CC(N)=O)C(=O)N[C@H](C(=O)NCC(=O)N1CCC[C@H]1C(=O)N[C@@H](CC(N)=O)C(=O)N[C@H](C(=O)N[C@@H](Cc1ccc(O)cc1)C(N)=O)[C@@H](C)O)C(C)C)[C@@H](C)O, also called compound 50) | 1.38 | 36
K([AEEA-γGlu-C20 diacid])CNTATCATQRLANFLRHSSPNFGAIPSSTNVGPHTY-NH2 (disulfide 2-7; N-terminus assumed; SMILES CC[C@H](C)[C@H](NC(=O)[C@H](C)NC(=O)CNC(=O)[C@H](Cc1ccccc1)NC(=O)[C@H](CC(N)=O)NC(=O)[C@@H]1CCCN1C(=O)[C@H](CO)NC(=O)[C@H](CO)NC(=O)[C@H](Cc1c[nH]cn1)NC(=O)[C@H](CCCNC(=N)N)NC(=O)[C@H](CC(C)C)NC(=O)[C@H](Cc1ccccc1)NC(=O)[C@H](CC(N)=O)NC(=O)[C@H](C)NC(=O)[C@H](CC(C)C)NC(=O)[C@H](CCCNC(=N)N)NC(=O)[C@H](CCC(N)=O)NC(=O)[C@@H](NC(=O)[C@H](C)NC(=O)[C@@H]1CSSC[C@H](NC(=O)[C@@H](N)CCCCNC(=O)COCCOCCNC(=O)CC[C@H](NC(=O)CCCCCCCCCCCCCCCCCCC(=O)O)C(=O)O)C(=O)N[C@@H](CC(N)=O)C(=O)N[C@@H]([C@@H](C)O)C(=O)N[C@@H](C)C(=O)N[C@@H]([C@@H](C)O)C(=O)N1)[C@@H](C)O)C(=O)N1CCC[C@H]1C(=O)N[C@@H](CO)C(=O)N[C@@H](CO)C(=O)N[C@H](C(=O)N[C@@H](CC(N)=O)C(=O)N[C@H](C(=O)NCC(=O)N1CCC[C@H]1C(=O)N[C@@H](Cc1c[nH]cn1)C(=O)N[C@H](C(=O)N[C@@H](Cc1ccc(O)cc1)C(N)=O)[C@@H](C)O)C(C)C)[C@@H](C)O, also called compound 58) | 9.63 | 109

More lines, in order of falling IC50 [1], values ahead:

IC50 [1] [nM] | Ratio hCT/hAmylin binding [2] | Binder
8.11 | 66.7 | K([AEEA-γGlu-C20 diacid])CNTATCATQRLAHFLRHSSPNFGAIPSSTPVGSNTY-NH2 (disulfide 2-7; N-terminus assumed; SMILES CC[C@H](C)[C@H](NC(=O)[C@H](C)NC(=O)CNC(=O)[C@H](Cc1ccccc1)NC(=O)[C@H](CC(N)=O)NC(=O)[C@@H]1CCCN1C(=O)[C@H](CO)NC(=O)[C@H](CO)NC(=O)[C@H](Cc1c[nH]cn1)NC(=O)[C@H](CCCNC(=N)N)NC(=O)[C@H](CC(C)C)NC(=O)[C@H](Cc1ccccc1)NC(=O)[C@H](Cc1c[nH]cn1)NC(=O)[C@H](C)NC(=O)[C@H](CC(C)C)NC(=O)[C@H](CCCNC(=N)N)NC(=O)[C@H](CCC(N)=O)NC(=O)[C@@H](NC(=O)[C@H](C)NC(=O)[C@@H]1CSSC[C@H](NC(=O)[C@@H](N)CCCCNC(=O)COCCOCCNC(=O)CC[C@H](NC(=O)CCCCCCCCCCCCCCCCCCC(=O)O)C(=O)O)C(=O)N[C@@H](CC(N)=O)C(=O)N[C@@H]([C@@H](C)O)C(=O)N[C@@H](C)C(=O)N[C@@H]([C@@H](C)O)C(=O)N1)[C@@H](C)O)C(=O)N1CCC[C@H]1C(=O)N[C@@H](CO)C(=O)N[C@@H](CO)C(=O)N[C@H](C(=O)N1CCC[C@H]1C(=O)N[C@H](C(=O)NCC(=O)N[C@@H](CO)C(=O)N[C@@H](CC(N)=O)C(=O)N[C@H](C(=O)N[C@@H](Cc1ccc(O)cc1)C(N)=O)[C@@H](C)O)C(C)C)[C@@H](C)O, also called compound 61)
5.66 | 64.4 | K([AEEA-γGlu-C20 diacid])CNTATCATQRLAHFLRHSSPNFGAIPSSTNVGPNTY-NH2 (disulfide 2-7; N-terminus assumed; SMILES CC[C@H](C)[C@H](NC(=O)[C@H](C)NC(=O)CNC(=O)[C@H](Cc1ccccc1)NC(=O)[C@H](CC(N)=O)NC(=O)[C@@H]1CCCN1C(=O)[C@H](CO)NC(=O)[C@H](CO)NC(=O)[C@H](Cc1c[nH]cn1)NC(=O)[C@H](CCCNC(=N)N)NC(=O)[C@H](CC(C)C)NC(=O)[C@H](Cc1ccccc1)NC(=O)[C@H](Cc1c[nH]cn1)NC(=O)[C@H](C)NC(=O)[C@H](CC(C)C)NC(=O)[C@H](CCCNC(=N)N)NC(=O)[C@H](CCC(N)=O)NC(=O)[C@@H](NC(=O)[C@H](C)NC(=O)[C@@H]1CSSC[C@H](NC(=O)[C@@H](N)CCCCNC(=O)COCCOCCNC(=O)CC[C@H](NC(=O)CCCCCCCCCCCCCCCCCCC(=O)O)C(=O)O)C(=O)N[C@@H](CC(N)=O)C(=O)N[C@@H]([C@@H](C)O)C(=O)N[C@@H](C)C(=O)N[C@@H]([C@@H](C)O)C(=O)N1)[C@@H](C)O)C(=O)N1CCC[C@H]1C(=O)N[C@@H](CO)C(=O)N[C@@H](CO)C(=O)N[C@H](C(=O)N[C@@H](CC(N)=O)C(=O)N[C@H](C(=O)NCC(=O)N1CCC[C@H]1C(=O)N[C@@H](CC(N)=O)C(=O)N[C@H](C(=O)N[C@@H](Cc1ccc(O)cc1)C(N)=O)[C@@H](C)O)C(C)C)[C@@H](C)O, also called compound 68)
